Test [1] addresses T1, pS KaiC (KaiC-EA; S431E, T432A) (cyanobacteria, UniProt Q79PF4 1-519, S431E | T432A).
T1 sequence: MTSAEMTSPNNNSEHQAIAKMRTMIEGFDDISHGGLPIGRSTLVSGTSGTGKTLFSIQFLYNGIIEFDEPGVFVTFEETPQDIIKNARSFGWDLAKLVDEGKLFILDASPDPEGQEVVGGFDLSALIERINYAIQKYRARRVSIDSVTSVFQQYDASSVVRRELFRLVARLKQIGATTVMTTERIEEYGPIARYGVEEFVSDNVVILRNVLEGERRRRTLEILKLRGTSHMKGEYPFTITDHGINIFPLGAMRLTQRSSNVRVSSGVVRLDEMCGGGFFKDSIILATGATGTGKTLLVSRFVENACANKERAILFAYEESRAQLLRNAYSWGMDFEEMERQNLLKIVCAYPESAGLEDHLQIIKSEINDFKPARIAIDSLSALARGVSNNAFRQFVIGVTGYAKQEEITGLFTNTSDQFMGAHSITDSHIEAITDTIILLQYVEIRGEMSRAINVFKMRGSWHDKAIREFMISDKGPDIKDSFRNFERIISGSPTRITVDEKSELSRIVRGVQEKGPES
Briefly: pull-down.

The target in test [2] is T2, wild-type KaiC with an N-terminal FLAG epitope (cyanobacteria, UniProt Q79PF4 1-519).
T2 sequence: T1 sequence with E431S, A432T
Description: pull-down.

Test [3] deals with T3, KaiC, wild type (no FLAG epitope) (cyanobacteria, UniProt Q79PF4 1-519).
T3 sequence: T1 sequence with E431S, A432T
Description: fluorescence polarisation. Background: Polarisation of emitted light reports the rotation of a fluorescent probe.

Test [4] concerns the target T2, wild-type KaiC with an N-terminal FLAG …. Description: fluorescence polarisation.

Residue numbers refer to the chain shown, from its start.

B1: biotinylated KaiB (natural protein)
chain: MSPRKTYILKLYVAGNTPNSVRALKTLKNILEVEFQGVYALKVIDVLKNPQLAEEDKILATPTLAKVLPLPVRRIIGDLSDREKVLIGLDLLYGELQDSDDF
modifications: biotin (amine-reactive EZ-Link-Sulfo-NHS-LC-Biotin, 50 x molar excess; sites not determined)
With B1, the binding result in test [1] and in test [2] was “binds” in each case.

B2: FITC-labeled KaiB K25C (natural protein)
chain: B1 chain with K25C
modifications: FITC label
Regarding B2, the binding result in test [3] and in test [4] was “binds” throughout.

For the origin of these results see publication PMC11696221 (Nature Communications, 2025).
